Test results as given in paper PMC6393296, “Intrinsically disordered regions regulate both catalytic and non-catalytic activities of the MutLα mismatch repair complex”.

How the values were obtained:
[1] = target: Mlh1 del348-373 (FLAG);Pms1 del584-634 (DLDnull subunit) (Saccharomyces cerevisiae (expressed in …, UniProt P38920;P14242 1-769;1-873, del348-373|del584-634)); experiment: filter binding; no nucleotide; 2 mM Mg2+; similar to WT; Filter binding: 20 mM Tris-HCl pH 7.5, 20 mM NaCl (25 mM in legends), 0.01 mM EDTA, 2 mM MgCl2, 40 ug/ml BSA, 0.1 mM DTT, 15 nM DNA, +/-1 mM ATP, 30 C, 10 min; details: protein: recombinant;recombinant; tags: FLAG inserted at position equivalent to 499;; copies: 1;1; label: 5'-32P on AO3142; blunt
Sequence of Mlh1 del348-373 (FLAG);Pms1 del584-634 (DLDnull subunit) (Saccharomyces cerevisiae (P38920 other isoform, or with tags, fused parts or gaps del348-373|del584-634, chain 1 of 2): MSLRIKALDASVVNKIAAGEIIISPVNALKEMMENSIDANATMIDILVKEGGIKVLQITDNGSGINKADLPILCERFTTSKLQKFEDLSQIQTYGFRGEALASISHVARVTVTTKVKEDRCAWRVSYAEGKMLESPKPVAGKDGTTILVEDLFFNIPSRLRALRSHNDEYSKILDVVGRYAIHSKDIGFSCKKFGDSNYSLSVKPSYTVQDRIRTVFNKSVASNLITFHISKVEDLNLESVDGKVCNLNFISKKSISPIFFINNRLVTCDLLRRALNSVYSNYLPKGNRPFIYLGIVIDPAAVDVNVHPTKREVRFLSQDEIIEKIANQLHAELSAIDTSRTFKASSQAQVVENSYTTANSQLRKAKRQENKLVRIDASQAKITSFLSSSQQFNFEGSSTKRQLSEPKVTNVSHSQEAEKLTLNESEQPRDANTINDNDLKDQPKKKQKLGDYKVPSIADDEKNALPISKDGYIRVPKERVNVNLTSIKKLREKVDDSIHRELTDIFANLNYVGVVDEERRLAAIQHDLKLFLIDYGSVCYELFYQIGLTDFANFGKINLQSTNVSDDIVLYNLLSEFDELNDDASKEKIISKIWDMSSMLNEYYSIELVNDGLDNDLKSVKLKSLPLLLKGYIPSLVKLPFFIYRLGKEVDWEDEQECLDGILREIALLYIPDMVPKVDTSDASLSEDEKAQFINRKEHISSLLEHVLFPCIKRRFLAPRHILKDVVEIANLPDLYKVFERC
Sequence of Mlh1 del348-373 (FLAG);Pms1 del584-634 (DLDnull subunit) (Saccharomyces cerevisiae (P14242 other isoform, or with tags, fused parts or gaps del348-373|del584-634, chain 2 of 2): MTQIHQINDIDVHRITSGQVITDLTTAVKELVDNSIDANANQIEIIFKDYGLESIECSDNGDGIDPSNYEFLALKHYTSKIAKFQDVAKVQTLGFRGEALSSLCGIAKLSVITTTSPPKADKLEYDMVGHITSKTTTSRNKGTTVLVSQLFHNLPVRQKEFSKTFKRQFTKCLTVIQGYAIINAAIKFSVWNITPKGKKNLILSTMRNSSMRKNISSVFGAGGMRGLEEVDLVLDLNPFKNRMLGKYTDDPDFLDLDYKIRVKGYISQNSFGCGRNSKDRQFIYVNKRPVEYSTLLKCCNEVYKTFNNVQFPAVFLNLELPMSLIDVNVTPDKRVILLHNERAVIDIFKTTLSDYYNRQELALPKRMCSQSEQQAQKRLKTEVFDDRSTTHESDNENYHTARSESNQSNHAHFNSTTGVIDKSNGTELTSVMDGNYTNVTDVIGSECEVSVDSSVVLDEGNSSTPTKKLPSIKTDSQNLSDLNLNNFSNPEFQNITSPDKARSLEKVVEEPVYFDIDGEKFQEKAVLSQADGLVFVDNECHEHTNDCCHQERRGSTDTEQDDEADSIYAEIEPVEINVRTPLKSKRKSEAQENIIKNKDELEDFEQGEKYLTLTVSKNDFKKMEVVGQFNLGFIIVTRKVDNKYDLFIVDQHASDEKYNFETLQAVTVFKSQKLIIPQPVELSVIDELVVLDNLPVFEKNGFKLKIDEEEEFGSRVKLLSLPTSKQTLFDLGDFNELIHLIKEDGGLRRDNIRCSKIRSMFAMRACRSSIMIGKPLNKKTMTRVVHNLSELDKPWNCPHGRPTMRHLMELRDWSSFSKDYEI

[2] = target: Mlh1 del348-373 (FLAG);Pms1 del438-487 (DLDMMR subunit) (Saccharomyces cerevisiae (expressed in …, UniProt P38920;P14242 1-769;1-873, del348-373|del438-487)); experiment: as above; details: protein: recombinant;recombinant; tags: FLAG inserted at position equivalent to 499;; copies: 1;1; label: 5'-32P on AO3142; blunt
Sequence of Mlh1 del348-373 (FLAG);Pms1 del438-487 (DLDMMR subunit) (Saccharomyces cerevisiae (P38920 other isoform, or with tags, fused parts or gaps del348-373|del438-487, chain 1 of 2): as the sequence (P38920 other isoform, or with tags, fused parts or gaps del348-373|del584-634, chain 1 of 2) above
Sequence of Mlh1 del348-373 (FLAG);Pms1 del438-487 (DLDMMR subunit) (Saccharomyces cerevisiae (P14242 other isoform, or with tags, fused parts or gaps del348-373|del438-487, chain 2 of 2): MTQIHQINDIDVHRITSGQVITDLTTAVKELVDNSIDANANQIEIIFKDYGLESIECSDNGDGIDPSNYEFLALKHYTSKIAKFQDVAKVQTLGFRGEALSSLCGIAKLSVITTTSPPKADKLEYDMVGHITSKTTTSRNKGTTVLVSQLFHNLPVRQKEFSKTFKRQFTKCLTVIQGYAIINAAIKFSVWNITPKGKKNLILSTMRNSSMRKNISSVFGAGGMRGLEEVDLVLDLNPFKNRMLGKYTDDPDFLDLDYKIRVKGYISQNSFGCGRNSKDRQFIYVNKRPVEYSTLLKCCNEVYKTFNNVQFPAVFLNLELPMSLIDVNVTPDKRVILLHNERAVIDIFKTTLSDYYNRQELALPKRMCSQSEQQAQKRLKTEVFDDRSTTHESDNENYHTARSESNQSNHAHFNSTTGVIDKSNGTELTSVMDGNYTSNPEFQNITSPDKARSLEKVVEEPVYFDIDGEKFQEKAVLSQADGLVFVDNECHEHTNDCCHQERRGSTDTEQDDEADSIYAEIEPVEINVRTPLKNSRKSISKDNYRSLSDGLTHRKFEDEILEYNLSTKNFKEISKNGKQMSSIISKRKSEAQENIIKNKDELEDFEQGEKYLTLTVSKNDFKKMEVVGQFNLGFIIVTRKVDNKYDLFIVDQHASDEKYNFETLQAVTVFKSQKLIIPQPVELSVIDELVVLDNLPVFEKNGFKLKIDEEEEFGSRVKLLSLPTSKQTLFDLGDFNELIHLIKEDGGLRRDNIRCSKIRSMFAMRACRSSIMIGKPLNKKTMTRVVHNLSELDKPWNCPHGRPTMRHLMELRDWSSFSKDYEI

[3] = target: Mlh1 (WT, FLAG);Pms1 (WT) (Saccharomyces cerevisiae (expressed in …, UniProt P38920;P14242 1-769;1-873, |)); experiment: filter binding; no nucleotide; 2 mM Mg2+; Filter binding: 20 mM Tris-HCl pH 7.5, 20 mM NaCl (25 mM in legends), 0.01 mM EDTA, 2 mM MgCl2, 40 ug/ml BSA, 0.1 mM DTT, 15 nM DNA, +/-1 mM ATP, 30 C, 10 min; details: protein: recombinant;recombinant; tags: FLAG inserted at position 499;; copies: 1;1; label: 5'-32P on AO3142; blunt
Sequence of Mlh1 (WT, FLAG);Pms1 (WT) (Saccharomyces cerevisiae (P38920 whole entry, chain 1 of 2): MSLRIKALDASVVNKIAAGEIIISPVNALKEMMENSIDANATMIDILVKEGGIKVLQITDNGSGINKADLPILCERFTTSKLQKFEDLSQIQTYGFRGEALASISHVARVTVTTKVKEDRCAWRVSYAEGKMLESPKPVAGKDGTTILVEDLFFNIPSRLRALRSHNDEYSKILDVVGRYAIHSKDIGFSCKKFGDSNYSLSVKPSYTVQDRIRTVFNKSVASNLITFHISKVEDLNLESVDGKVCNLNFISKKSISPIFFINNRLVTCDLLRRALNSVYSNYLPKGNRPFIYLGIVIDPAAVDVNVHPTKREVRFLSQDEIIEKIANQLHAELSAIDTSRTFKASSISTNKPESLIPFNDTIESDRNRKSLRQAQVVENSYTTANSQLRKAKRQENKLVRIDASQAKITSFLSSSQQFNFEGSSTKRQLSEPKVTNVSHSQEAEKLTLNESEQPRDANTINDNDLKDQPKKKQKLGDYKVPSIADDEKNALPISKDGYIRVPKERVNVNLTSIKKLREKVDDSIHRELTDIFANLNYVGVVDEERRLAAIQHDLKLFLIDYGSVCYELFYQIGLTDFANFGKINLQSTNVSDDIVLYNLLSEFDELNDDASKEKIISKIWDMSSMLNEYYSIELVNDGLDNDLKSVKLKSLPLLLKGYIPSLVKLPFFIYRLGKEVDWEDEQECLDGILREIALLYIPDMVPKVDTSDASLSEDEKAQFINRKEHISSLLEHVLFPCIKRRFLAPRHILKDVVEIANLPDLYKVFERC
Sequence of Mlh1 (WT, FLAG);Pms1 (WT) (Saccharomyces cerevisiae (P14242 whole entry, chain 2 of 2): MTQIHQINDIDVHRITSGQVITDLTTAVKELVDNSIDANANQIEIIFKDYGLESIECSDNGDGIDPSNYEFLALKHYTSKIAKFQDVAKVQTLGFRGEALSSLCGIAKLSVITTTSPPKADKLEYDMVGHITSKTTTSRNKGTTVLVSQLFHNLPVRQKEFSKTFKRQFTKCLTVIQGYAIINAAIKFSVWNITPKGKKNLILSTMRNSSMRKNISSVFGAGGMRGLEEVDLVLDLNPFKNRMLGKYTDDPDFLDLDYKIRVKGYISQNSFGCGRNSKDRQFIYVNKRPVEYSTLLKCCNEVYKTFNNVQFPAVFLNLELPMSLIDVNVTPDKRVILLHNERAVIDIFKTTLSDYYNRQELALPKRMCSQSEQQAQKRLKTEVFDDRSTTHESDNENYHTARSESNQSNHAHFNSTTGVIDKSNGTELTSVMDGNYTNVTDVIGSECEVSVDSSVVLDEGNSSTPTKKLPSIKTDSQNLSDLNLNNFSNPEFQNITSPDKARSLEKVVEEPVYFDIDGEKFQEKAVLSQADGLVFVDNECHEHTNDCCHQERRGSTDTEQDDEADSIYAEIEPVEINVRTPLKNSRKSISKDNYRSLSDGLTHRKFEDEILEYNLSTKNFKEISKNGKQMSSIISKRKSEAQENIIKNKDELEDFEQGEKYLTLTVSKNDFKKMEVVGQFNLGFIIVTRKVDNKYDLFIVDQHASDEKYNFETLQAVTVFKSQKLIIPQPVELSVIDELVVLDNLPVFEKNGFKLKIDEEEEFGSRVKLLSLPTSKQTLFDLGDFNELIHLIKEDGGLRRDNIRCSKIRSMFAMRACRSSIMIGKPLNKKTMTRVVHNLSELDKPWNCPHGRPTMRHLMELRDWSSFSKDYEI

Measured: binding result

B1: 49-bp homoduplex AO3142/AO3144 (dsDNA)
DNA 1: GGGTCAACGTGGGCAAAGATGTCCTAGCAAGTCAGAATTCGGTAGCGTG
DNA 2: CACGCTACCGAATTCTGACTTGCTAGGACATCTTTGCCCACGTTGACCC
binds: [1] | [2] | [3]
